Numbering of substitutions follows the chain as printed. In names and notes the source's numbering stands.
B1: anti-human OX40 antibody, human IgG2 Fc mutant Mut_8 (V266L/L328W) (antibody, name in EU numbering)
heavy: QVQLQESGPGLVKPSGTLSLTCAVSGGSISSSIWWSWVRQPPGKGLEWIGEIHHSGNTNCNPSLKSRVTISIDKSKNQFSLKLTSVTAADTAVYYCARAGTGTTLDYWGQGTLVTVSSASTKGPSVFPLAPCSRSTSESTAALGCLVKDYFPEPVTVSWNSGALTSGVHTFPAVLQSSGLYSLSSVVTVPSSNFGTQTYTCNVDHKPSNTKVDKTVERKCCVECPPCPAPPVAGPSVFLFPPKPKDTLMISRTPEVTCVVVDLSHEDPEVQFNWYVDGVEVHNAKTKPREEQFNSTFRVVSVLTVVHQDWLNGKEYKCKVSNKGWPAPIEKTISKTKGQPREPQVYTLPPSREEMTKNQVSLTCLVKGFYPSDIAVEWESNGQPENNYKTTPPMLDSDGSFFLYSKLTVDKSRWQQGNVFSCSVMHEALHNHYTQKSLSLSPGK
light: EIVLTQSPGTLSLSPGERATLSCRASQSVSGDYLAWYQQKLGQAPRLLIYGASIRATGIPDRFSGSGSGTDFTLTISKLEPEDFAVYYCQQYGSSPLTFGGGTKVEIKRTVAAPSVFIFPPSDEQLKSGTASVVCLLNNFYPREAKVQWKVDNALQSGNSQESVTEQDSKDSTYSLSSTLTLSKADYEKHKVYACEVTHQGLSSPVTKSFNRGEC
B2: anti-human OX40 antibody, human IgG2 Fc mutant Mut_24 (V266L/S267E/H268S/E269G/P271T) (antibody, name in EU numbering)
heavy: B1 heavy with S264E, H265S, E266G, P268T, W325L
light: B1 light
B3: anti-human OX40 antibody, human IgG2 Fc mutant Mut_23 (V266L/S267E/E269K/P271G) (antibody, name in EU numbering)
heavy: B1 heavy with S264E, E266K, P268G, W325L
light: B1 light
B4: anti-human OX40 antibody, human IgG2 Fc mutant Mut_2 (H268D/S298L/L328W) (antibody, name in EU numbering)
heavy: B1 heavy with L263V, H265D, S295L
light: B1 light
B5: anti-human OX40 antibody, human IgG2 Fc mutant Mut_19 (V266L/S267E/H268S/E269V/P271C) (antibody, name in EU numbering)
heavy: B1 heavy with S264E, H265S, E266V, P268C, W325L
light: B1 light
B6: anti-human OX40 antibody, human IgG2 Fc mutant Mut_22 (V266L/S267M/H268E/P271Q) (antibody, name in EU numbering)
heavy: B1 heavy with S264M, H265E, P268Q, W325L
light: B1 light
B7: human IgG2 anti-mouse CD40 surface displayed antibody, Fc mutant L328E/I332T (antibody, name in EU numbering)
light chain (with the P2A rest): DTVLTQSPALAVSPGERVTISCRASDSVSTLMHWYQQKPGQQPKLLIYLASHLESGVPARFSGSGSGTDFTLTIDPVEADDTATYYCQQSWNDPWTFGGGTKLELKRTVAAPSVFIFPPSDEQLKSGTASVVCLLNNFYPREAKVQWKVDNALQSGNSQESVTEQDSKDSTYSLSSTLTLSKADYEKHKVYACEVTHQGLSSPVTKSFNRGECGSGATNFSLLKQAGDVEENPG
heavy chain: EVQLVESDGGLVQPGRSLKLPCAASGFTFSDYYMAWVRQAPTKGLEWVASISYDGSSTYYRDSVKGRFTISRDNAKSTLYLQMDSLRSEDTATYYCGRHSSYFDYWGQGVMVTVSSASTKGPSVFPLAPCSRSTSESTAALGCLVKDYFPEPVTVSWNSGALTSGVHTFPAVLQSSGLYSLSSVVTVPSSNFGTQTYTCNVDHKPSNTKVDKTVERKCCVECPPCPAPPVAGPSVFLFPPKPKDTLMISRTPEVTCVVVDVSHEDPEVQFNWYVDGVEVHNAKTKPREEQFNSTFRVVSVLTVVHQDWLNGKEYKCKVSNKGEPAPTEKTISKTKGQPREPQVYTLPPSREEMTKNQVSLTCLVKGFYPSDIAVEWESNGQPENNYKTTPPMLDSDGSFFLYSKLTVDKSRWQQGNVFSCSVMHEALHNHYTQKSLSLSPGKLEPPPSTVSNMATVAVLVVLGAAIVTGAVVAFVMKMRRRNTGGKGGDYALAPGSQTSDLSLPDCKVMVHDPHSLA
notes: as m1; positions are Eu numbers; copies: 2 + 2
B8: human IgG2 anti-mouse CD40 surface displayed antibody, Fc mutant S298L (antibody, name in EU numbering)
light chain (with the P2A rest): B7 light chain (with the P2A rest)
heavy chain: B7 heavy chain with S293L, E323L, T327I
notes: as for B7
B9: human IgG2 anti-mouse CD40 surface displayed antibody, Fc mutant V266A (antibody, name in EU numbering)
light chain (with the P2A rest): B7 light chain (with the P2A rest)
heavy chain: B7 heavy chain with V261A, E323L, T327I
notes: as for B7
B10: human IgG2 anti-mouse CD40 surface displayed antibody, Fc mutant S267A (antibody, name in EU numbering)
light chain (with the P2A rest): B7 light chain (with the P2A rest)
heavy chain: B7 heavy chain with S262A, E323L, T327I
notes: as for B7
B11: human IgG2 anti-mouse CD40 surface displayed antibody, Fc mutant S298N (antibody, name in EU numbering)
light chain (with the P2A rest): B7 light chain (with the P2A rest)
heavy chain: B7 heavy chain with S293N, E323L, T327I
notes: as for B7
B12: human IgG2 anti-mouse CD40 surface displayed antibody, Fc mutant S267M (antibody, name in EU numbering)
light chain (with the P2A rest): B7 light chain (with the P2A rest)
heavy chain: B7 heavy chain with S262M, E323L, T327I
notes: as for B7
B13: human IgG2 anti-mouse CD40 surface displayed antibody, Fc mutant S298K (antibody, name in EU numbering)
light chain (with the P2A rest): B7 light chain (with the P2A rest)
heavy chain: B7 heavy chain with S293K, E323L, T327I
notes: as for B7
B14: human IgG2 anti-mouse CD40 surface displayed antibody, Fc mutant S298E (antibody, name in EU numbering)
light chain (with the P2A rest): B7 light chain (with the P2A rest)
heavy chain: B7 heavy chain with S293E, E323L, T327I
notes: as for B7
B15: human IgG2 anti-mouse CD40 surface displayed antibody, Fc mutant P271C (antibody, name in EU numbering)
light chain (with the P2A rest): B7 light chain (with the P2A rest)
heavy chain: B7 heavy chain with P266C, E323L, T327I
notes: as for B7
B16: human IgG2 anti-mouse CD40 surface displayed antibody, Fc mutant P331T (antibody, name in EU numbering)
light chain (with the P2A rest): B7 light chain (with the P2A rest)
heavy chain: B7 heavy chain with E323L, P326T, T327I
notes: as for B7
B17: human IgG2 anti-mouse CD40 surface displayed antibody, Fc mutant P331C (antibody, name in EU numbering)
light chain (with the P2A rest): B7 light chain (with the P2A rest)
heavy chain: B7 heavy chain with E323L, P326C, T327I
notes: as for B7

Each molecule was assayed against human OX40 (human) (UniProt P43489) (assay: cell-based or functional assay).
Chain of human OX40 (human) (P43489 29-277): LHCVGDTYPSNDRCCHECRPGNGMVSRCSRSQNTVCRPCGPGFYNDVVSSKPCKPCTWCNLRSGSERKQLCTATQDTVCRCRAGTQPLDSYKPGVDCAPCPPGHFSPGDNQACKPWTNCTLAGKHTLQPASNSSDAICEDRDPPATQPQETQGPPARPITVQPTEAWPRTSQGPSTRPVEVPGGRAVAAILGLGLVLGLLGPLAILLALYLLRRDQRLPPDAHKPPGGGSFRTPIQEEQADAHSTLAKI
With Ctrl hIgG (antibody) the Average increased factor of the activity over wild-type IgG2 of two experiments was 0.65, the Experiment 1 CFSE fluorescence intensity, 0.01 µg/ml was 1020 and the Experiment 1 CFSE fluorescence intensity, 0.1 µg/ml was 1080. The Experiment 1 CFSE fluorescence intensity, 1 µg/ml was 1070, the Experiment 2 CFSE fluorescence intensity, 0.1 µg/ml was 2730 and the Experiment 2 CFSE fluorescence intensity, 1 µg/ml was 2590.
For B1, the Average increased factor of the activity over wild-type IgG2 of two experiments was 12.3, the Average relative activity of two experiments was 0.54 and the Experiment 1 CFSE fluorescence intensity, 0.01 µg/ml was 844. The Experiment 1 CFSE fluorescence intensity, 0.1 µg/ml was 719, the Experiment 1 CFSE fluorescence intensity, 1 µg/ml was 799 and the Experiment 1 average relative activity was 0.46. For the same molecule, the Experiment 1 relative activity, 0.01 µg/ml was 0.36, the Experiment 1 relative activity, 0.1 µg/ml was 0.59 and the Experiment 1 relative activity, 1 µg/ml was 0.44. The Experiment 2 CFSE fluorescence intensity, 0.1 µg/ml was 1810, the Experiment 2 CFSE fluorescence intensity, 1 µg/ml was 1440 and the Experiment 2 average relative activity was 0.65. It also gave an Experiment 2 relative activity, 0.1 µg/ml of 0.55 and an Experiment 2 relative activity, 1 µg/ml of 0.75.
B2 showed an Average increased factor of the activity over wild-type IgG2 of two experiments of 9.75, an Average relative activity of two experiments of 0.43 and an Experiment 1 CFSE fluorescence intensity, 0.01 µg/ml of 912. It also gave an Experiment 1 CFSE fluorescence intensity, 0.1 µg/ml of 812, an Experiment 1 CFSE fluorescence intensity, 1 µg/ml of 816 and an Experiment 1 average relative activity of 0.36. For the same molecule, the Experiment 1 relative activity, 0.01 µg/ml was 0.24, the Experiment 1 relative activity, 0.1 µg/ml was 0.42 and the Experiment 1 relative activity, 1 µg/ml was 0.41. It also gave an Experiment 2 CFSE fluorescence intensity, 0.1 µg/ml of 2050, an Experiment 2 CFSE fluorescence intensity, 1 µg/ml of 1650 and an Experiment 2 average relative activity of 0.53. The Experiment 2 relative activity, 0.1 µg/ml was 0.43 and the Experiment 2 relative activity, 1 µg/ml was 0.64.
B3 was tested, and the Average increased factor of the activity over wild-type IgG2 of two experiments was 9.8, the Average relative activity of two experiments was 0.43 and the Experiment 1 CFSE fluorescence intensity, 0.01 µg/ml was 898. It also gave an Experiment 1 CFSE fluorescence intensity, 0.1 µg/ml of 777, an Experiment 1 CFSE fluorescence intensity, 1 µg/ml of 843 and an Experiment 1 average relative activity of 0.37. It also gave an Experiment 1 relative activity, 0.01 µg/ml of 0.26, an Experiment 1 relative activity, 0.1 µg/ml of 0.48 and an Experiment 1 relative activity, 1 µg/ml of 0.36. It also gave an Experiment 2 CFSE fluorescence intensity, 0.1 µg/ml of 2160, an Experiment 2 CFSE fluorescence intensity, 1 µg/ml of 1600 and an Experiment 2 average relative activity of 0.52. It also gave an Experiment 2 relative activity, 0.1 µg/ml of 0.37 and an Experiment 2 relative activity, 1 µg/ml of 0.67.
B4 was tested, and the Average increased factor of the activity over wild-type IgG2 of two experiments was 16.5, the Average relative activity of two experiments was 0.72 and the Experiment 1 CFSE fluorescence intensity, 0.01 µg/ml was 685. For the same molecule, the Experiment 1 CFSE fluorescence intensity, 0.1 µg/ml was 654, the Experiment 1 CFSE fluorescence intensity, 1 µg/ml was 677 and the Experiment 1 average relative activity was 0.67. The Experiment 1 relative activity, 0.01 µg/ml was 0.65, the Experiment 1 relative activity, 0.1 µg/ml was 0.71 and the Experiment 1 relative activity, 1 µg/ml was 0.66. It also gave an Experiment 2 CFSE fluorescence intensity, 0.1 µg/ml of 1550, an Experiment 2 CFSE fluorescence intensity, 1 µg/ml of 1150 and an Experiment 2 average relative activity of 0.8. The Experiment 2 relative activity, 0.1 µg/ml was 0.69 and the Experiment 2 relative activity, 1 µg/ml was 0.9.
B5 showed an Average increased factor of the activity over wild-type IgG2 of two experiments of 10.5, an Average relative activity of two experiments of 0.46 and an Experiment 1 CFSE fluorescence intensity, 0.01 µg/ml of 880. The Experiment 1 CFSE fluorescence intensity, 0.1 µg/ml was 735, the Experiment 1 CFSE fluorescence intensity, 1 µg/ml was 824 and the Experiment 1 average relative activity was 0.42. For the same molecule, the Experiment 1 relative activity, 0.01 µg/ml was 0.3, the Experiment 1 relative activity, 0.1 µg/ml was 0.56 and the Experiment 1 relative activity, 1 µg/ml was 0.4. It also gave an Experiment 2 CFSE fluorescence intensity, 0.1 µg/ml of 2090, an Experiment 2 CFSE fluorescence intensity, 1 µg/ml of 1670 and an Experiment 2 average relative activity of 0.52. For the same molecule, the Experiment 2 relative activity, 0.1 µg/ml was 0.41 and the Experiment 2 relative activity, 1 µg/ml was 0.63.
B6 was tested, and the Average increased factor of the activity over wild-type IgG2 of two experiments was 9.9, the Average relative activity of two experiments was 0.43 and the Experiment 2 CFSE fluorescence intensity, 0.1 µg/ml was 2290. For the same molecule, the Experiment 2 CFSE fluorescence intensity, 1 µg/ml was 1790, the Experiment 2 average relative activity was 0.43 and the Experiment 2 relative activity, 0.1 µg/ml was 0.3. It also gave an Experiment 2 relative activity, 1 µg/ml of 0.56.

The molecules below were run against T1, Biotin-FcγRIIB (human, UniProt P31994 43-217, limits assumed, biotin-labelled) (assay: FACS sorting of displayed Fc library on biotin-FcγRIIB, NGS).
T1 construct: Bought, biotin-labelled; used at 1 µg/ml for staining and sorting; also called human FcγRIIB; CD32b
T1 sequence (looked up): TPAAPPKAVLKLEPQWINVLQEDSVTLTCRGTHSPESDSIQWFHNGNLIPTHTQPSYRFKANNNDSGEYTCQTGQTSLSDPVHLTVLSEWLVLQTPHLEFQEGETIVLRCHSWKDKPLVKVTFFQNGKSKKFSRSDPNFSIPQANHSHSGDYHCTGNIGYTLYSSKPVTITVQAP
For B7, the “Enrichment factor (after/before sorting)” value was 55.1 and the “Increased factor a (enrichment factor/wild-type enrichment factor)” value was 36.9.
B8 was tested, and the “Increased factor b Site 2 (point mutation/wild-type)” value was 2.9.
In the case of B9, the “Increased factor b Site 1 (point mutation/wild-type)” value is reported as 3.1.
For B10, the “Increased factor b Site 1 (point mutation/wild-type)” value was 5.5.
In the case of B11, the “Increased factor b Site 2 (point mutation/wild-type)” value is reported as 2.3.
With B12 the “Increased factor b Site 1 (point mutation/wild-type)” value was 2.6.
For B13, the “Increased factor b Site 2 (point mutation/wild-type)” value was 4.4.
With B14 the “Increased factor b Site 2 (point mutation/wild-type)” value was 7.1.
With B15 the “Increased factor b Site 2 (point mutation/wild-type)” value was 29.9.
B16 was tested, and the “Increased factor b Site 2 (point mutation/wild-type)” value was 0.1.
In the case of B17, the “Increased factor b Site 2 (point mutation/wild-type)” value is reported as 0.2.

— US20230220042A1 (SHANGHAI JIAO TONG UNIVERSITY SCHOOL OF MEDICINE, published 2023)
